Target: RanQ69L(aa1-180)–GTP (UniProt P62826 1-180, Q69L)
Assay: pull-down

B1: His–Xpo 4 (exportin 4, Mus musculus) (natural protein)
chain: not shown
  binding result: binds

Reference: article PMC8131929 (The Journal of Biological Chemistry, 2021)
